From paper PMC3656037

Test system: Sau-PolC-ΔNΔExo (Staphylococcus aureus)
Assay: active site titration (pre-steady-state burst amplitude vs DNA, quadratic fit)
Settings: Reaction buffer, salt, pH and temperature not given in the material; DNA annealed in 10 mM Tris-HCl pH 8, 1 mM EDTA, 100 mM NaCl; protein stored in 50 mM …

## primer/template (p/t) DNA
  Kd: 390 nM
